Data from patent EP4810513A1 (Genexine, Inc., dated 2026).

T1: huSOX3 with C-terminal 6×His-tag, produced by Biointron (human, UniProt P41225 1-446)
T1 sequence: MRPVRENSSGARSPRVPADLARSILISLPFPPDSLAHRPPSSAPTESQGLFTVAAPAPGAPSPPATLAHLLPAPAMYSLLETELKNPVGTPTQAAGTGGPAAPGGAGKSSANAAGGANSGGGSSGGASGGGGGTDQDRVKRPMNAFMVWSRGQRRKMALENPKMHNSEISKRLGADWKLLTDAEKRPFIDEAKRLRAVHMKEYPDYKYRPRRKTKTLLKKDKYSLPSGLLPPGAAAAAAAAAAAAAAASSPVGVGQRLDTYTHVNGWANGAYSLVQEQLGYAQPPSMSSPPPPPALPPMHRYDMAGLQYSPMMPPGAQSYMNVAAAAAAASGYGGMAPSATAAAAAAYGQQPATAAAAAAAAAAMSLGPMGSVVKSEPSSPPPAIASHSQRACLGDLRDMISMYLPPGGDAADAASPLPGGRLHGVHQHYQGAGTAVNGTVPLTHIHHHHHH


The binders below were run against huSOX2.V5 (huSOX2 with a V5-tag at the C-terminus) (human, UniProt P48431 1-317) (assay: cell-based or functional assay).
Chain of huSOX2.V5 (huSOX2 with a V5-tag at the C-terminus) (P48431 other isoform, or with tags, fused parts or gaps): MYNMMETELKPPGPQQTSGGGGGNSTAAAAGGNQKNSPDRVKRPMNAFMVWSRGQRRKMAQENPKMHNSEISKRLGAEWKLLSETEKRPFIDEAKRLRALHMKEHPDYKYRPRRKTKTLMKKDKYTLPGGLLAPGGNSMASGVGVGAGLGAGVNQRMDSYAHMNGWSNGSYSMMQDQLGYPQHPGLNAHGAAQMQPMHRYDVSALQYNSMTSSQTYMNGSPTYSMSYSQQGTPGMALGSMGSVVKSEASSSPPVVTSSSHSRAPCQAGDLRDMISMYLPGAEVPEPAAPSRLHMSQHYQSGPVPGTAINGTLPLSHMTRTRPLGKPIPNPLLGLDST

Binder	SOX2 degradation capability compared to the control group (Mock) (HEK-293 cells)
3A2.005 (Flag-tag - 3A2 - GS linker - SPOP 167-374) (other) DYKDDDDKTREVQLVESGGEQVQPGSSLKLSCSVSGLMISGHAMSWVRQVPGAGPEWVAVDNPGGKKNYIDSVAGRFTIARDNDANSLSLVMNGLRPEDTARYFCARVLSFKIYEGDKWALEWDYRGPGTQVTVSSGSSVNISGQNTMNMVKVPECRLADELGGLWENSRFTDCCLCVAGQEFQAHKAILAARSPVFSAMFEHEMEESKKNRVEINDVEPEVFKEMMCFIYTGKAPNLDKMADDLLAAADKYALERLKVMCEDALCSNLSVENAAEILILADLHSADQLKTQAVDFINYHASDVLETSGWKSMVVSHPHLVAEAYRSLASAQCPFLGPPRKRLKQS	≥ 70%
3A2.011 (Flag-tag - TRIM21 2-85 - GS linker - 3A2) (other) DYKDDDDKTRASAARLTMMWEEVTCPICLDPFVEPVSIECGHSFCQECISQVGKGGGSVCPVCRQRFLLKNLRPNRQLANMVNNLKEISQEAREGSEVQLVESGGEQVQPGSSLKLSCSVSGLMISGHAMSWVRQVPGAGPEWVAVDNPGGKKNYIDSVAGRFTIARDNDANSLSLVMNGLRPEDTARYFCARVLSFKIYEGDKWALEWDYRGPGTQVTVSS	≥ 70%
3A2.012 (Flag-tag - 3A2 - GS linker - RNF4 71-190) (other) DYKDDDDKTREVQLVESGGEQVQPGSSLKLSCSVSGLMISGHAMSWVRQVPGAGPEWVAVDNPGGKKNYIDSVAGRFTIARDNDANSLSLVMNGLRPEDTARYFCARVLSFKIYEGDKWALEWDYRGPGTQVTVSSGSDERRRPRRNARRLPQDHADSCVVSSDDEELSRDRDVYVTTHTPRNARDEGATGLRPSGTVSCPICMDGYSEIVQNGRLIVSTECGHVFCSQCLRDSLKNANTCPTCRKKINHKRYHPIYI	≥ 70%
3A2.007 (Flag-tag - 3A2 - GS linker - CHIP 128-303) (other) DYKDDDDKTREVQLVESGGEQVQPGSSLKLSCSVSGLMISGHAMSWVRQVPGAGPEWVAVDNPGGKKNYIDSVAGRFTIARDNDANSLSLVMNGLRPEDTARYFCARVLSFKIYEGDKWALEWDYRGPGTQVTVSSGSRLNFGDDIPSALRIAKKKRWNSIEERRIHQESELHSYLSRLIAAERERELEECQRNHEGDEDDSHVRAQQACIEAKHDKYMADMDELFSQVDEKRKKRDIPDYLCGKISFELMREPCITPSGITYDRKDIEEHLQRVGHFDPVTRSPLTQEQLIPNLAMKEVIDAFISENGWVEDY	≥ 70%

What follows are binders tested against T2, huSOX2 protein with N-terminal Halo tag (pHTN vector), expressed in HEK293T cells (human, UniProt P48431 1-317, HaloTag 618 ligand bound to the Halo tag) (assay: NanoBRET in HEK293T cells, NanoLuc-VHH and Halo-huSOX2).
T2 construct: Expressed inside HEK293T cells (NanoBRET); not shown: Halo tag
T2 sequence (P48431 whole entry): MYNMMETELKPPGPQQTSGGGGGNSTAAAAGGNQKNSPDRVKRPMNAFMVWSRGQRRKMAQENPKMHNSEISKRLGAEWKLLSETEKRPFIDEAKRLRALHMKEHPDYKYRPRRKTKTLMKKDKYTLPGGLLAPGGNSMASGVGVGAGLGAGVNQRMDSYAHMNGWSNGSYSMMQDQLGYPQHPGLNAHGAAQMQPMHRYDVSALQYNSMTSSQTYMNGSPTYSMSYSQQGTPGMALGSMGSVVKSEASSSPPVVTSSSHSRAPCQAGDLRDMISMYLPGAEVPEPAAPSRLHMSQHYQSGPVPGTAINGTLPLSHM

Binder	binding result
3F11 with N-terminal NanoLuc tag (pNLF1-N-3F11), expressed in HEK293T cells (VHH, NanoBRET donor construct; not shown: NanoLuc tag) VHH: DVQLVESGGGLVQPGGSLRLSCATSGFTFSSSTMSWVRQVPGAGPEWVAVDNPGGKKNYIDSVAGRFTIARDNDANSLSLVMNGLRPEDTARYFCARVLSFKIYEGDKWALEWDYRGPGTQVTVSS	binds
2E8 with N-terminal NanoLuc tag (pNLF1-N-2E8), expressed in HEK293T cells (VHH, NanoBRET donor construct; not shown: NanoLuc tag) VHH: EVQLVESGGGLVQPGGSLRLSCAASGFTLDYYGMGWFRQAPGKEREFVAAISRSGGSTVYADSVKGRFTISADNSKNTAYLQMNSLKPEDTAVYYCAREVVRGGINYWGQGTLVTVSS	binds
3H9 with N-terminal NanoLuc tag (pNLF1-N-3H9), expressed in HEK293T cells (VHH, NanoBRET donor construct; not shown: NanoLuc tag) VHH: QVQLVESGGEQVQPGSSLKLSCSVSGLMISGHAMSWVRQVPGAGPEWVAVDNPGGKKNYIDSVAGRFTIARDNDANSLSLVMNGLRPEDTARYFCARVLSFKIYGGDKWALEWDYRGPGTQVTVSS	binds

What follows are binders tested against T3, human SRY-box transcription factor 2 (huSOX2) with C-terminal 6×His-tag, produced by Biointron (human, UniProt P48431 1-317) (assay: 96-well ELISA screening of individual colonies, 20 ug/mL huSOX2).
T3 construct: also called huSOX2 protein; biotinylated huSOX2 (Biointron)
T3 sequence (P48431 other isoform, or with tags, fused parts or gaps limits assumed): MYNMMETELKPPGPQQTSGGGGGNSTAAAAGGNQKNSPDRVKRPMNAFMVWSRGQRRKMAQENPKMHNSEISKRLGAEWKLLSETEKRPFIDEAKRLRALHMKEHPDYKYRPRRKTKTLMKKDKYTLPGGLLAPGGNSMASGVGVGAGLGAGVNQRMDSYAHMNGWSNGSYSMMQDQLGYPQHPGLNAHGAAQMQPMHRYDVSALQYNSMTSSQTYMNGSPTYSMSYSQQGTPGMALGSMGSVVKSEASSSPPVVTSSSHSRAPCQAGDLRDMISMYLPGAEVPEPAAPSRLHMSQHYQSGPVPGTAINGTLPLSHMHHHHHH

Binder	binding result
2E8 (anti-huSOX2 VHH antibody clone) (VHH, Clone from the VHH phage library panning; tested as individual colony in ELISA screening) VHH: EVQLVESGGGLVQPGGSLRLSCAASGFTLDYYGMGWFRQAPGKEREFVAAISRSGGSTVYADSVKGRFTISADNSKNTAYLQMNSLKPEDTAVYYCAREVVRGGINYWGQGTLVTVSS	binds
1B9 (anti-huSOX2 VHH antibody clone) (VHH, Clone from the VHH phage library panning; tested as individual colony in ELISA screening) VHH: EVQLVESGGGLVQPGGSLRLSCAASGLTFSTYSMGWFRQAPGKEREFVAAITWNSGRRTYYADSVKGRFTISADNSKNTAYLQMNSLKPEDTAVYYCASRVDDRVWGQGTLVTVSS	binds
1C4 (anti-huSOX2 VHH antibody clone) (VHH, Clone from the VHH phage library panning; tested as individual colony in ELISA screening) VHH: EVQLVESGGGLVQPGGSLRLSCAASGGGFRGNAVMGWFRQAPGKERELVAAIRGSGEDTYYADSVKGRFTISADNSKNTAYLQMNSLKPEDTAVYYCAGGWRRGYFQDWGQGTLVTVSS	binds
1C2 (anti-huSOX2 VHH antibody clone) (VHH, Clone from the VHH phage library panning; tested as individual colony in ELISA screening) VHH: EVQLVESGGGLVQPGGSLRLSCAASGSTYTTYSMGWFRQAPGKEREFVAAIRWSGGTTYYADSVKGRFTISADNSKNTAYLQMNSLKPEDTAVYYCASRVDDRVWGQGTLVTVSS	binds
1C12 (anti-huSOX2 VHH antibody clone) (VHH, Clone from the VHH phage library panning; tested as individual colony in ELISA screening) VHH: EVQLVESGGGLVQPGGSLRLSCAASGSTYTTYSMGWFRQAPGKEREFVAAIRWSGGSTHYADSVKGRFTISADNSKNTAYLQMNSLKPEDTAVYYCASRVDDRVWGQGTLVTVSS	binds
1A5 (anti-huSOX2 VHH antibody clone) (VHH, Clone from the VHH phage library panning; tested as individual colony in ELISA screening) VHH: EVQLVESGGGLVQPGGSLRLSCAASGSTYTTYSMGWFRQAPGKEREFVGAIHWSGGRTYYADSVKGRFTISADNSKNTAYLQMNSLKPEDTAVYYCASRVDDRVWGQGTLVTVSS	binds
1C11 (anti-huSOX2 VHH antibody clone) (VHH, Clone from the VHH phage library panning; tested as individual colony in ELISA screening) VHH: EVQLVESGGGLVQPGGSLRLSCAASGSTYTTYSMGWFRQAPGKEREFVGAIRWSGGTTYYADSVKGRFTISADNSKNTAYLQMNSLKPEDTAVYYCASRVDDRVWGQGTLVTVSS	binds
1A11 (anti-huSOX2 VHH antibody clone) (VHH, Clone from the VHH phage library panning; tested as individual colony in ELISA screening) VHH: EVQLVESGGGLVQPGGSLRLSCAASGSTYTTYSMGWFRQAPGKEREFVAAIHWSGGGTYYADSVKGRFTISADNSKNTAYLQMNSLKPEDTAVYYCASRVDDRVWGQGTLVTVSS	binds
1A9 (anti-huSOX2 VHH antibody clone) (VHH, Clone from the VHH phage library panning; tested as individual colony in ELISA screening) VHH: EVQLVESGGGLVQPGGSLRLSCAASGRTFSTYSMGWFRQAPGKEREFVAAIRWTAGTTYYADSVKGRFTISADNSKNTAYLQMNSLKPEDTAVYYCASRVDDRVWGQGTLVTVSS	binds

The binders below were run against T3, human SRY-box transcription factor 2 … (assay: selection from a naive sdAb phage display library, three rounds of panning).

Binder	binding result
3F11 (anti-huSOX2 VHH antibody) (VHH, Selected from a naive sdAb phage display library (Genscript Probio)) VHH: DVQLVESGGGLVQPGGSLRLSCATSGFTFSSSTMSWVRQVPGAGPEWVAVDNPGGKKNYIDSVAGRFTIARDNDANSLSLVMNGLRPEDTARYFCARVLSFKIYEGDKWALEWDYRGPGTQVTVSS	binds

What follows are binders tested against CynoSOX2 with C-terminal 6×His-tag, produced by Biointron (cyno, UniProt P48431 45-317 (human entry), limits assumed) in the same assay as above.
Chain of CynoSOX2 with C-terminal 6×His-tag, produced by Biointron (P48431 other isoform, or with tags, fused parts or gaps limits assumed): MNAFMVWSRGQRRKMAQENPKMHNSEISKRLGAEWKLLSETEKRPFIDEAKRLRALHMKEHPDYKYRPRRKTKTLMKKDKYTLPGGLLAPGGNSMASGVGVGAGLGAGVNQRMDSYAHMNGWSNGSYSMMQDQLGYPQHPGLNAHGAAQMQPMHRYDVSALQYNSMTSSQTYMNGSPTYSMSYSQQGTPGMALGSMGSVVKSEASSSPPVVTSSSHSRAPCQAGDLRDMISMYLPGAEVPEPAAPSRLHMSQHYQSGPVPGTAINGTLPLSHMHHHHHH

Binder	binding result
3F11 (anti-huSOX2 VHH antibody) (VHH, Selected from a naive sdAb phage display library (Genscript Probio)) VHH: DVQLVESGGGLVQPGGSLRLSCATSGFTFSSSTMSWVRQVPGAGPEWVAVDNPGGKKNYIDSVAGRFTIARDNDANSLSLVMNGLRPEDTARYFCARVLSFKIYEGDKWALEWDYRGPGTQVTVSS	binds

What follows are binders tested against T1, huSOX3 with C-terminal 6×His-tag, … in the same assay as above.

Binder	binding result
3F11 (anti-huSOX2 VHH antibody) (VHH, Selected from a naive sdAb phage display library (Genscript Probio)) VHH: DVQLVESGGGLVQPGGSLRLSCATSGFTFSSSTMSWVRQVPGAGPEWVAVDNPGGKKNYIDSVAGRFTIARDNDANSLSLVMNGLRPEDTARYFCARVLSFKIYEGDKWALEWDYRGPGTQVTVSS	no binding
